Paper PMC11194110, “Single-molecule imaging reveals a direct role of CTCF’s zinc fingers in SA interaction and cluster-dependent RNA recruitment” (Nucleic Acids Research, 2024)

Tests used:
CTCF WT (human) [1] = assay: single-molecule DNA curtains (TIRF); conditions: 300 mM NaCl wash; DNA curtains: CTCF 10 nM (ZF9-CT 50 nM, ZF4-7 200 nM) or SA 100 nM; load at 50 mM NaCl, wash at 300 mM NaCl; buffer, pH and temperature not given in material
CTCF WT (human) [2] = assay: single-molecule DNA curtains lifetime; conditions: DNA curtains: CTCF 10 nM (ZF9-CT 50 nM, ZF4-7 200 nM) or SA 100 nM, load at 50 mM NaCl, wash at 300 mM NaCl, buffer, pH and temperature not given in material; for binding signal (min (lifetime)): 300 mM NaCl wash, photobleaching corrected
[3] = tested on: CTCF WT;SA1 (human;human?); assay: single-molecule DNA curtains (TIRF); conditions: preincubated 10 nM CTCF, 100 nM SA1; 300 mM NaCl wash; DNA curtains: CTCF 10 nM (ZF9-CT 50 nM, ZF4-7 200 nM) or SA 100 nM; load at 50 mM NaCl, wash at 300 mM NaCl; buffer, pH and temperature not given in material
[4] = tested on: CTCF WT;SA2 (human;human?); assay: single-molecule DNA curtains (TIRF); conditions: preincubated 10 nM CTCF, 100 nM SA2; 300 mM NaCl wash; DNA curtains: CTCF 10 nM (ZF9-CT 50 nM, ZF4-7 200 nM) or SA 100 nM; load at 50 mM NaCl, wash at 300 mM NaCl; buffer, pH and temperature not given in material
[5] = tested on: T1, CTCF ZF4-7 del1-350;del461-727 (human); assay: single-molecule DNA curtains lifetime; conditions: not enriched on CBSs; DNA curtains: CTCF 10 nM (ZF9-CT 50 nM, ZF4-7 200 nM) or SA 100 nM; load at 50 mM NaCl, wash at 300 mM NaCl; buffer, pH and temperature not given in material
T1 sequence: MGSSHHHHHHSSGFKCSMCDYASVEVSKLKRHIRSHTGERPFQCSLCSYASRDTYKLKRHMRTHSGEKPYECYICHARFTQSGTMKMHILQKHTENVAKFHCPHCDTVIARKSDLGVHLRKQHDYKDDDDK

CTCF ZF9-CT (human) = tested on: T2, CTCF ZF9-CT (human); assay: single-molecule DNA curtains lifetime; conditions: not enriched on CBSs (negative enrichment); prefers AT-rich DNA; DNA curtains: CTCF 10 nM (ZF9-CT 50 nM, ZF4-7 200 nM) or SA 100 nM; load at 50 mM NaCl, wash at 300 mM NaCl; buffer, pH and temperature not given in material
T2 sequence: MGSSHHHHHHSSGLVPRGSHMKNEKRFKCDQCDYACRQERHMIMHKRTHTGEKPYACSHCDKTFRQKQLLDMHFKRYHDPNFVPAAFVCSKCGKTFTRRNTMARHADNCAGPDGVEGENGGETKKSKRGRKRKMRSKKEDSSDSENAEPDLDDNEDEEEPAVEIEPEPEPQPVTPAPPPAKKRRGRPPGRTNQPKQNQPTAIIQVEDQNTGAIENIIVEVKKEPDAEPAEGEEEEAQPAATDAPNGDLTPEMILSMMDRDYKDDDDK

[6] = tested on: CTCF ΔRBR (ΔRBR+ΔZF1,10,11) (human); assay: single-molecule DNA curtains lifetime; conditions: 300 mM NaCl wash; CBS enrichment similar to WT; DNA curtains: CTCF 10 nM (ZF9-CT 50 nM, ZF4-7 200 nM) or SA 100 nM; load at 50 mM NaCl, wash at 300 mM NaCl; buffer, pH and temperature not given in material
[7] = biological target: CTCF WT (human CCCTC-binding factor, full-length) (human) (UniProt P49711); assay: single-molecule photobleaching step counting on DNA curtains; labeled CTCF on λ-DNA at 50 mM NaCl without prior removal of unspecifically bound CTCF, 25 ng/μl 100 bp Cy3-RNA added; bleaching steps counted at positions of captured RNA; both lasers at 140 mW
[8] = biological target: CTCF ΔNC (truncation mutant missing both CTCF termini, containing all 11 ZFs) (human); assay: as above
[9] = biological target: T3, CTCF WT (human CCCTC-binding factor, full-length) (human, UniProt P49711 1-727, fluorescent dye (AF568, Atto 643 or Alexa Fluor 660) on the Halo-tag through a chloroalkane linker; unlabeled in the SA transcription experiments); assay: single-molecule DNA curtains (TIRF microscopy), combined loading; 100 or 400 nM SA-LD655 preincubated with 10 nM CTCF in CTCF 100 buffer (40 mM Tris pH 7.5, 100 mM NaCl, 1 mM MgCl2, 1 mg/ml BSA, 1 mM DTT) 5 min at RT; 30 s on λ-DNA with 4× CBSs in 50 mM NaCl, then 3 min (lifetimes: up to 15 min) in 300 mM NaCl; SA read at CBS-bound CTCF (enrichment, lifetime); conditions: both partners purified
T3 construct: 11 zinc fingers and two unstructured termini; also called AF-568-CTCF-WT; AF568-CTCF; source: High Five (Hi5) insect cells, purified (Ni-NTA, heparin, Superose 6); not shown: Halo, N-terminal, kept
T3 sequence (looked up): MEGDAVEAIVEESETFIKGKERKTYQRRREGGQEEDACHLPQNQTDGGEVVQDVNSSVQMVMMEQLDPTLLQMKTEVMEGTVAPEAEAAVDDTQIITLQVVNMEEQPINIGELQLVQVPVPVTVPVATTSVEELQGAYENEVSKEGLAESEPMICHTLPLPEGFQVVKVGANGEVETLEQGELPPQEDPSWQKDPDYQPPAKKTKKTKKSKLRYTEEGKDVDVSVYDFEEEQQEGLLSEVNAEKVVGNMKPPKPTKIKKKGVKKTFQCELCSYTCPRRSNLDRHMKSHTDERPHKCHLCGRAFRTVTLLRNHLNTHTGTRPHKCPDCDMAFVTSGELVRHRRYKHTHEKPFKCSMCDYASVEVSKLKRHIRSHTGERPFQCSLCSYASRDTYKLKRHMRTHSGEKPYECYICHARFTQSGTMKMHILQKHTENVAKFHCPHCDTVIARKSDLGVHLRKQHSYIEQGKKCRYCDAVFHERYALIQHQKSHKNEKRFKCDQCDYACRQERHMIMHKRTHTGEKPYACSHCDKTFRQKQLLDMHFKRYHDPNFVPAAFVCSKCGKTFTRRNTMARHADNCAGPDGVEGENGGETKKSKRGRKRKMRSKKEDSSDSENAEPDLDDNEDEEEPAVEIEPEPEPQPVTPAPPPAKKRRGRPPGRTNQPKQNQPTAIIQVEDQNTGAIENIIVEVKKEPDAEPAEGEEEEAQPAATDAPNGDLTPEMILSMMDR

1xT7-1xCBS λ-DNA
binding signal (fold enrichment on CBS) (CTCF WT (human) [1]): 7 | binding signal (min (lifetime)) (CTCF WT (human) [2]): 50

2xT7-4xCBSs λ-DNA
binding signal (fold enrichment on CBS) (CTCF WT (human) [1]): 16 | binding signal (fold SA1 enrichment on CBS) [3]: 10 | binding signal (fold SA2 enrichment on CBS) [4]: 8 | binding signal (min (lifetime)) (CTCF WT (human) [2]): 50 | binding signal (fold reduced lifetime vs WT) [5]: 90 | binding signal (fold reduced lifetime vs WT) (CTCF ZF9-CT (human)): 25 | binding signal (fold reduced lifetime vs WT) [6]: 2.5

CTCF WT (human CCCTC-binding factor, full-length) (from UniProt P49711 1-727) (natural protein)
photobleaching steps in CTCF-RNA clusters [7]: 8.8 steps | stoichiometry N (CTCF molecules) [7]: 17

CTCF ΔNC (truncation mutant missing both CTCF termini, containing all 11 ZFs) (domain or fragment)
photobleaching steps in clusters on DNA (bleaching steps) [8]: 9

λ-DNA (non-CBS)
binding signal (fold lower lifetime than on CBS) (CTCF WT (human) [2]; coats DNA at 50 mM NaCl, mostly washed off at 300 mM): > 40

B1: Cohesin subunit SA2 (natural protein, UniProt Q8N3U4 1-1231, looked up)
chain: MIAAPEIPTDFNLLQESETHFSSDTDFEDIEGKNQKQGKGKTCKKGKKGPAEKGKGGNGGGKPPSGPNRMNGHHQQNGVENMMLFEVVKMGKSAMQSVVDDWIESYKHDRDIALLDLINFFIQCSGCKGVVTAEMFRHMQNSEIIRKMTEEFDEDSGDYPLTMAGPQWKKFKSSFCEFIGVLVRQCQYSIIYDEYMMDTVISLLTGLSDSQVRAFRHTSTLAAMKLMTALVNVALNLSINMDNTQRQYEAERNKMIGKRANERLELLLQKRKELQENQDEIENMMNAIFKGVFVHRYRDAIAEIRAICIEEIGIWMKMYSDAFLNDSYLKYVGWTMHDKQGEVRLKCLTALQGLYYNKELNSKLELFTSRFKDRIVSMTLDKEYDVAVQAIKLLTLVLQSSEEVLTAEDCENVYHLVYSAHRPVAVAAGEFLYKKLFSRRDPEEDGMMKRRGRQGPNANLVKTLVFFFLESELHEHAAYLVDSMWDCATELLKDWECMNSLLLEEPLSGEEALTDRQESALIEIMLCTIRQAAECHPPVGRGTGKRVLTAKEKKTQLDDRTKITELFAVALPQLLAKYSVDAEKVTNLLQLPQYFDLEIYTTGRLEKHLDALLRQIRNIVEKHTDTDVLEACSKTYHALCNEEFTIFNRVDISRSQLIDELADKFNRLLEDFLQEGEEPDEDDAYQVLSTLKRITAFHNAHDLSKWDLFACNYKLLKTGIENGDMPEQIVIHALQCTHYVILWQLAKITESSSTKEDLLRLKKQMRVFCQICQHYLTNVNTTVKEQAFTILCDILMIFSHQIMSGGRDMLEPLVYTPDSSLQSELLSFILDHVFIEQDDDNNSADGQQEDEASKIEALHKRRNLLAAFCKLIVYTVVEMNTAADIFKQYMKYYNDYGDIIKETMSKTRQIDKIQCAKTLILSLQQLFNEMIQENGYNFDRSSSTFSGIKELARRFALTFGLDQLKTREAIAMLHKDGIEFAFKEPNPQGESHPPLNLAFLDILSEFSSKLLRQDKRTVYVYLEKFMTFQMSLRREDVWLPLMSYRNSLLAGGDDDTMSVISGISSRGSTVRSKKSKPSTGKRKVVEGMQLSLTEESSSSDSMWLSREQTLHTPVMMQTPQLTSTIMREPKRLRPEDSFMSVYPMQTEHHQTPLDYNRRGTSLMEDDEEPIVEDVMMSSEGRIEDLNEGMDFDTMDIDLPPSKNRRERTELKPDFFDPASIMDESVLGVSMF
modifications: LD655-CoA dye on the ybbR-tag (Sfp labeling)
notes: cohesin subunit SA2; also called SA-LD655; source: High Five (Hi5) insect cells, purified (Ni-NTA, heparin, Superose 6); not shown: ybbR, C-terminal, kept
fold enrichment on the CBSs with CTCF [9]: 8 fold

B2: Cohesin subunit SA1 (natural protein, UniProt Q8WVM7 1-1258, looked up)
chain: MITSELPVLQDSTNETTAHSDAGSELEETEVKGKRKRGRPGRPPSTNKKPRKSPGEKSRIEAGIRGAGRGRANGHPQQNGEGEPVTLFEVVKLGKSAMQSVVDDWIESYKQDRDIALLDLINFFIQCSGCRGTVRIEMFRNMQNAEIIRKMTEEFDEDSGDYPLTMPGPQWKKFRSNFCEFIGVLIRQCQYSIIYDEYMMDTVISLLTGLSDSQVRAFRHTSTLAAMKLMTALVNVALNLSIHQDNTQRQYEAERNKMIGKRANERLELLLQKRKELQENQDEIENMMNSIFKGIFVHRYRDAIAEIRAICIEEIGVWMKMYSDAFLNDSYLKYVGWTLHDRQGEVRLKCLKALQSLYTNRELFPKLELFTNRFKDRIVSMTLDKEYDVAVEAIRLVTLILHGSEEALSNEDCENVYHLVYSAHRPVAVAAGEFLHKKLFSRHDPQAEEALAKRRGRNSPNGNLIRMLVLFFLESELHEHAAYLVDSLWESSQELLKDWECMTELLLEEPVQGEEAMSDRQESALIELMVCTIRQAAEAHPPVGRGTGKRVLTAKERKTQIDDRNKLTEHFIITLPMLLSKYSADAEKVANLLQIPQYFDLEIYSTGRMEKHLDALLKQIKFVVEKHVESDVLEACSKTYSILCSEEYTIQNRVDIARSQLIDEFVDRFNHSVEDLLQEGEEADDDDIYNVLSTLKRLTSFHNAHDLTKWDLFGNCYRLLKTGIEHGAMPEQIVVQALQCSHYSILWQLVKITDGSPSKEDLLVLRKTVKSFLAVCQQCLSNVNTPVKEQAFMLLCDLLMIFSHQLMTGGREGLQPLVFNPDTGLQSELLSFVMDHVFIDQDEENQSMEGDEEDEANKIEALHKRRNLLAAFSKLIIYDIVDMHAAADIFKHYMKYYNDYGDIIKETLSKTRQIDKIQCAKTLILSLQQLFNELVQEQGPNLDRTSAHVSGIKELARRFALTFGLDQIKTREAVATLHKDGIEFAFKYQNQKGQEYPPPNLAFLEVLSEFSSKLLRQDKKTVHSYLEKFLTEQMMERREDVWLPLISYRNSLVTGGEDDRMSVNSGSSSSKTSSVRNKKGRPPLHKKRVEDESLDNTWLNRTDTMIQTPGPLPAPQLTSTVLRENSRPMGDQIQEPESEHGSEPDFLHNPQMQISWLGQPKLEDLNRKDRTGMNYMKVRTGVRHAVRGLMEEDAEPIFEDVMMSSRSQLEDMNEEFEDTMVIDLPPSRNRRERAELRPDFFDSAAIIEDDSGFGMPMF
modifications: LD655-CoA dye on the ybbR-tag (Sfp labeling)
notes: cohesin subunit SA1; also called SA-LD655; source: High Five (Hi5) insect cells, purified (Ni-NTA, heparin, Superose 6); not shown: ybbR, C-terminal, kept
fold enrichment on the CBSs with CTCF [9]: 10 fold
